These results are taken from publication PMC9765892, “Molecular identification and functional characterization of two glycosyltransferases genes from Fallopia multiflora” (Frontiers in Plant Science, 2022).

The target of one series is T1, FmUGT1 (Pleuropterus multiflorus, UniProt A0A9E7V1Q5).
T1 construct: gene UGT; full length, 533 residues (ORF 1602 bp); pET-32a (BamH I) in E. coli Transetta (DE3), Ni-NTA purified
As to the kind of experiment: HPLC glycosylation assay; Lineweaver-Burk plot. The settings on record: 0.8 mM UDP-glucose; 0.05 M Tris-HCl; 5-480 μM substrate; pH and temperature of kinetics not stated; substrate assigned from methods. The class given is biochemical. From the text: HPLC glycosylation assay; Lineweaver-Burk plot on FmUGT1 | using THSG and emodin as the substrate for FmUGT1 and FmUGT2, respectively

Substrate in series [1]: Cc1cc(O)c2c(c1)C(=O)c1cc(O)cc(O)c1C2=O
As to the kind of experiment: HPLC glycosylation assay; Lineweaver-Burk plot. Format: biochemical, Pleuropterus multiflorus. The settings on record: 0.8 mM UDP-glucose; 0.05 M Tris-HCl; 5-480 μM substrate; pH and temperature of kinetics not stated; substrate assigned from methods. An excerpt:
HPLC glycosylation assay; Lineweaver-Burk plot on FmUGT2 | using THSG and emodin as the substrate for FmUGT1 and FmUGT2, respectively

T1 sequence (A0A9E7V1Q5 entry or part of it): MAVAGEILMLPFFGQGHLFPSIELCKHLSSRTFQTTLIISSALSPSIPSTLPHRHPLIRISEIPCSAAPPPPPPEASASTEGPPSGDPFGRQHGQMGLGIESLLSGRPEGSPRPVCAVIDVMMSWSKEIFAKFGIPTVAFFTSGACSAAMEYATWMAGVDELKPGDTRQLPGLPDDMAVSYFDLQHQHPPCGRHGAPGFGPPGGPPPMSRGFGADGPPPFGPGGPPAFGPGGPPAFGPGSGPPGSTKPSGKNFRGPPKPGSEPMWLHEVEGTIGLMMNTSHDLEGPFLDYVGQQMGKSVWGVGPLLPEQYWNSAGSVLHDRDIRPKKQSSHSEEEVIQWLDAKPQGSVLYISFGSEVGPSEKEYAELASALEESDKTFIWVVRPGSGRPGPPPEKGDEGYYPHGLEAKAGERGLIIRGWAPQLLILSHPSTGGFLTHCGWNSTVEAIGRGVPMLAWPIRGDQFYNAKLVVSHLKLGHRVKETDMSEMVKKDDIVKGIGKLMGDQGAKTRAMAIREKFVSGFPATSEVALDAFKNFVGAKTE

`OC[C@H]1O[C@@H](Oc2c(O)cc(O)cc2/C=C/c2ccc(O)cc2)[C@H](O)[C@@H](O)[C@@H]1O` [compound 1, THSG]: the Km on FmUGT1 stood at 236 µM.

B1: FmUGT2 (Pleuropterus multiflorus) (protein)
chain: MTISKTANLVLIPAPGMGHLAPAIELAKHLVARDPRLSITVLLIKGFVPEETVESYILSLKSNSSLLNQGIGFIDIPQIDLNSARPSFLTHMNAYQPKVKEAIEGLRSAGPLPVAGLLVDMFCTSTIDVATELGLPSYVFFTSGAGLLRLFFHLHGLGVDVAQEYDVVRSPDTLLEIPGFRNPVPVKVLPGRFLSKDGQSSTFLRLADKFRQAKGILVNTCMEIDRDLIQSMSQQDIEIPPIYPVGPILNLPTEDDHGHDDDESSGKDPITRWLDDQPPRSVVFLCFGSRGTFNDTQIKEIAVGLERSGQRFLWSLRQRPGETGVPLELDDPSKVLPEGFFERTAEKGRVIGWAPQARVLAHKAVGAFVSHCGWNSTLESFWYGVPIAAWPIYAEQQLNAFVLVKELGLATEIRIDYCQDFGINMVVKAEEVEDGINKAMKETEVKKKVKEMCDKARKALEEGGSSYESIGRFIEVVFKNLP
notes: full length, 482 residues (ORF 1449 bp); pET-32a (BamH I) in E. coli Transetta (DE3), Ni-NTA purified
On to B1, for which, in series [1], the Michaelis-Menten constant (Km) amounted to 185 µM and the turnover number (kcat) was determined as 0.1413 s⁻¹.

One may read the Km as the substrate concentration at which the rate is half of its maximum. By kcat is commonly meant the number of substrate molecules converted per active site and unit of time at saturation.
